Values belong to the molecule of their own block, whether it stands above or below them.
Columns and labels:
PCIF1 (endogenous, MIN6) = PCIF1 (endogenous, MIN6) (UniProt Q6ZWS8); assay: Duolink proximity ligation assay; settings: reference: DMSO, sites T231,S232
PCIF1 (human; SPOP) = PCIF1 (human; SPOP) (UniProt O43791); assay: GST pull-down, 35S autoradiography; settings: sites T231,S232
[1] = target: T1, GST-PDX-1 T231D/S232E (CK2-phosphomimicking mutant) (mouse, UniProt P52946 1-284, T231D | S232E); assay: pull-down; 10 ug purified GST-tagged PDX-1 immobilised on GSH-sepharose in PBS-T (PBS pH 7.4, 1% Tween 20), incubated 2 h at 4 °C with 7.5 uL in vitro translated [35S]-methionine labeled PCIF1; SDS-PAGE, Coomassie and autoradiography; settings: one partner purified
T1 construct: 'Full-length mouse PDX-1' is said of the FLAG construct; also called D/E mutant; source: bacterial expression vector pGEX-4T-1, purified
T1 sequence (P52946 whole entry T231D/S232E): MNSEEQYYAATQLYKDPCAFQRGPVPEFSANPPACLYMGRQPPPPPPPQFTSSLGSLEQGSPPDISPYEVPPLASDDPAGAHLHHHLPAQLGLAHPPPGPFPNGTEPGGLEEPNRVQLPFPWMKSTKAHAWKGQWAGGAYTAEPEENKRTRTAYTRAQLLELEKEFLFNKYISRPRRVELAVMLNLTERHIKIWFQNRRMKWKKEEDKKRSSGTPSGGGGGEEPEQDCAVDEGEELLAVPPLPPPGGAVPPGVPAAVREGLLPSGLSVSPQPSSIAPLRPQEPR

percent of reference (PCIF1 (endogenous, MIN6); 5 mM glucose): weaker; reference 100
Molecule: PDX-1 (from UniProt P52946) 10 µM CX-4945, 5 mM glucose

percent of reference (PCIF1 (endogenous, MIN6); 25 mM glucose): weaker; reference 100
Molecule: PDX-1 (from UniProt P52946) 10 µM CX-4945, 25 mM glucose

fold change (PCIF1 (human; SPOP); reference: GST-PDX-1 T231A/S232A): 1.5
fold change (PCIF1 (human; SPOP); reference: GST-PDX-1 wild type): 1.5
Molecule: PDX-1 (from UniProt P52946) GST-PDX-1 T231D/S232E

fold binding against wild-type or the AA mutant [1]: 1.5 fold
B1: PCIF1 (human), in vitro translated and [35S]-methionine labeled, from pET28a-PCIF-1 (natural protein, UniProt O43791 1-374, looked up)
chain: MSRVPSPPPPAEMSSGPVAESWCYTQIKVVKFSYMWTINNFSFCREEMGEVIKSSTFSSGANDKLKWCLRVNPKGLDEESKDYLSLYLLLVSCPKSEVRAKFKFSILNAKGEETKAMESQRAYRFVQGKDWGFKKFIRRDFLLDEANGLLPDDKLTLFCEVSVVQDSVNISGQNTMNMVKVPECRLADELGGLWENSRFTDCCLCVAGQEFQAHKAILAARSPVFSAMFEHEMEESKKNRVEINDVEPEVFKEMMCFIYTGKAPNLDKMADDLLAAADKYALERLKVMCEDALCSNLSVENAAEILILADLHSADQLKTQAVDFINYHASDVLETSGWKSMVVSHPHLVAEAYRSLASAQCPFLGPPRKRLKQS
modifications: [35S]-methionine labeled
notes: PCIF1 / SPOP, human cDNA cloned into the BamH1/Xho1 sites of pET28a; wild-type form; The tags are inferred from the vector and cloning sites; also called SPOP; source: in vitro translated (Promega) from pET28a-PCIF-1

— PMC5374406, “The Phosphorylation of PDX-1 by Protein Kinase CK2 Is Crucial for Its Stability” (Pharmaceuticals, 2016)
